Data published in the nanobody polyreactivity screen of Harvey et al. (2022).

Test: yeast display, Sf9 membrane polyspecificity reagent, FACS + sequencing; frameworks hold sequencing errors
How it was run: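 A nanobody's polyreactivity label depends on the gate it was sorted from. Yeast display cells were stained with 10% biotinylated, detergent-solubilized Sf9 membrane reagent for 1 hour at 4 °C, enriched on streptavidin microbeads and sorted by FACS. The low and high (top ~1%) gates were set on anti-HA fluorescence for expression and streptavidin fluorescence for reagent binding.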

Sequence | polyreactivity (PSR sort gate)
QVQHVESGGGLVQAGRSLRLICAASGSTFLEYAMGWYRQAPGKERELVASISWSGGSTNYADSVKGRFTFSRDNAKNTVYLQMNSLKPEDTAVFYCNARGWSVVSSRYGYWGQGTQVTVSS | low polyreactivity
QVQHVESGGGLVQARGSLRLSCSASGVIFYNYAMGWSRQAPGKEREFVAAISGSGGSTYYADSVKGRFTISRDNAKNTVYLQMNSLKPEDTAVYYCAVRQRYGPARYDYWGQGTQVTVSS | high polyreactivity
QVQHVESGGGLVQGGGSLRLSCAASGSTFYAYAKGWYRQARGKERELVAVITSSGSTYYADSVKGRFTISRDNAKNTDYLQMNSLKAEDTAVYYCAAKRLSQSRRTQYRTRYQPMYYWGQGTQVTVSS | high polyreactivity
QVQHVESGGGVVQAGGSLRLSCAASGSIFSRYTMGWYRQAPGKERELVAAITSSGGRTYYADSVKGRFTISRDNAKNTVYLQMNSLKPEDTSVYYFDARIPKQQGYGYWGQGTQVTVSS | high polyreactivity
QVQHVESGGRLVQAGGSLRLICAASGRTFAPYAMGWYRQAPGKVRELVARITWSGTDTYYADSVKGRFTISRDNAKNTVYLQMNSLKPEDTAVYYCAADARYSRRYYYWGEGTQVTVSS | low polyreactivity
QVQHVESGRGLVQAGCSLPLSCAASGFTFLAYAMGWYRQAPGKETELVAAISRSGGRTYYADSVKWRFTISRDNAKNTVYLQMNSLKPEDTAVYYCAKRVLTHPGDDYWGQGAQVTVSS | high polyreactivity
QVQHVESGRGLVQAGGSLRLSCAASGSIQGGNARGCSSQAPGKESELVAAITFSGGGTYYADSVKGRLTISRDNAKNTVYLQMNSVKPEDTAVYYCAADIDGYTYEFDYWGQGTQVTVYS | low polyreactivity
QVQHVESGRGLVQAGVSLRLSCAASGIFFGAYAMGWYRQAPGKEREFVAAISRSGGSTYYADSVKGRFTISRDYAKNTVYFQKNSLKPEDSAVYYCNALAKYHYYLGQGTQVTVSS | high polyreactivity
QVQHVESGVGLVQAVGSLRLSCAASGLTFKYYAMGWYRQAAVKEWELVARLSRTGGSTNYADSVKGRFTISRDNAKNTLYLQMNSLKPEDTAVSYCNTQFSYSSAPPFWYTKMYYWGQGTQVTVSS | high polyreactivity
QVQHVESRGGLVQAGGSLRLRCAASGRIFSHYAMGWYRQAPGKERELVAAITSDGSTNYADSVKGRFTISRDNAKNTVYLQMNSLKPEDTAVYYCAKYVHIPYYYYLFGSYDYWGQGSQVTVSS | low polyreactivity
QVQHVESRGGLVQAGGSLRLSCAASGIIFSRNAMGWSRKAPGKERELLSGITSSGGTTYYADSVKGRFTISRDNAKNTVYLQMNSLKAEDTAVYYCAAYSTQNYSYRRYYYWGQGTQVTVSS | high polyreactivity
QVQHVESRGGLVQAGGSLRLSCAASGLIFTCNAMGWYRQAPGKERELVAAISTGGSTSYADSVKGRFTIARDNAKNTVYLQMNSLKPEDTAVYYCARDSSIWSHGSWYDYWGQGTQVTVSS | low polyreactivity
QVQHVESRGGLVQAGGSLRLSCAASGRTFFNNVMGWYRQAPGKERELVAAISKSGTRTYYADSVKGRFTISRDNAKNTVYLQMNSLKPEDTAVYYCATGQYLRTSRYYYWGQGTQVTVSS | high polyreactivity
QVQHVESRGGLVQAGGSLRLSCAASGRTFFWYAMGWYRQAPGKERELVADISSSGGSTYYADSVKGRFTISRDNAKNTVYLQMNSLKPEDTAVYYCAALSPWWRGGYNYWGQGTQVTVSS | high polyreactivity
QVQHVESRGGLVQAGGSLRLSCAASGSIFGYYGMGWYRQAPGKERELVATITSGGSTNYADSVKGRFTISRDNAKNTVYLQMNSLKPEDTAVYYCARQYGYQPERYGYWGQGTQVTVSS | low polyreactivity
QVQHVESRGGLVQAGGSLRLSCAASGSTIISNAQGWYRLAPGKERELVASIRSSGSTNYADSVKGRFTISRDNAKNTVYLKMNSLKPEDTAVYYCAAGSYWVQFQYDYWGQGTQVTVSS | low polyreactivity
QVQHVESVGGLVQAGGSLRLSCAASGSIFFWYDMGWYRQAPGKERELVASISSGGSTYYADSVKGRFTISRDNAKNTVYLQMNSLKPEDNAVYYCNAKSWSPAKSFSFFRFDYWGQGTQVTVSS | low polyreactivity
QVQHVESVGGLVQAGGSLRLSCASSGRTLFYYTMRWYRQARGTERELVAAISSGDSTNYADSVKGRFTISRDNAKNTVYLHMNSLKPEDTAVYYCAARFYQIRRRYDYWGQGTQVTVSS | low polyreactivity
QVQHVQSGGGLVQAGGSLPLSCDASASIFKYYTMGWYRQAPGKERELVATINFSGASTYYADSVKGRFTISRDNAKNTVYLQINSLKPEDTAVYYCAAVSSSTYRYYYWGQGTQVTVSS | high polyreactivity
QVQIEESGGGLVQAGGSLRLSCAASGFIFVWYAMGWYRQAPGKERELVAAISRDGDTNYADSVKGRFTISRDNAKNTVYLQMNSLKPEDTAVDYCARTYIYSGRIYNYGYWGQGTQVTVSS | high polyreactivity
QVQIEESGGGLVQAGGSLRLSCAASGNIFPGNDMGWYRQAPRKERELVAAITSRDGSTYYADSVKGRFTISRDNAKNTVYLQMNSLKPEDTAVYYCNTDPDLYYLATAGYWSHDYWGQGTQVTVSS | low polyreactivity
QVQIEESGGGLVQAGGSLRLSCAASGSIFVVYALGWYRPAPGKERELVAGISRNGGRTYYADSVKGRFTISRDNAKITVYLQMNILKPEDTAVYYCNAYRPSRHDYWGQGTQVTVSS | high polyreactivity

Sequence | polyreactivity (PSR sort gate)
QVQIEESGGGLVQAGGSLRLTCAASGRIFYLNAMGWYRQAPGKERELVAGITNSTTGTYYADSVKGRFTISRDNAKNSVYLQMNSLKPEDTAVFYCNTDVAYEEPVETYDYWGQGTQVTVSS | low polyreactivity
QVQIGESGGGLVQAGGSLRLSCAACGFIFYRYAMGWYRQAPGKERELVAAISWSGGTTYYADSVKGRFTISRDNAKNTDYLQMNSLKPEDTAVYYCNARYPRSSPFGYWGQGTQVTVSS | high polyreactivity
QVQILESGGGLVKAGGSLRLSCAASGYTFYANAMGWYRKAPGKEREFVASITWSGGSTYYADSVKGRFTISRDNAKNTVYLQMNSLKPEDTAVDYCAADVIGDLRWYRDEYLGQGTQVTVSS | low polyreactivity
QVQIVDSCGGLVQSGGSLRLSCDASGSTFLTNSMGWYRQAPGKERELVAAITLRGGRTYYADSVKGRFTISRDNALNTVYLQMNSLKPEDSAVYYCNARNYYYPSDRDYWGQGTQVTVSS | low polyreactivity
QVQIVDSGGGLVQAVGSLRLSCAASGSIIKKYAMGWYRQAPGKERELVAAISSTCGSTKYADSVKGRFTISRDNAKNTVYLQMNSLKAEDTAVYYCAVRYKWPYDYWGQGTQVTVSS | high polyreactivity
QVQIVESGGALVQAGCSLRLSCAASGSTFWYYVMGWYRQAPGKERELVAAISIVGSTYYADSVKGRFTLSRDNAKNTVYLQMNSLKPEDTAVYYCAADIYQYGYDYWGQGTQVTVSS | low polyreactivity
QVQIVESGGALVQAGGSLRFSCAASGSIFFSNTRGWYRQAPGKEREFVAAITWSTGNTYYADSVKGRFTISRDNAKNTVYLQMNSLKPEDTAVYYCYAEYLVITWYGGVEFDYWGQGTQVTVSS | low polyreactivity
QVQIVESGGGLDQAGGSLRLSCAASGRTFVSNDMGRYRQAPGKERELVATISSGASTYYADSVKGRFTISRDNAKTTVYLQMISLKPEDNAVYYCAAEDLVFGGGYDYWGQGTQVNVSS | low polyreactivity
QVQIVESGGGLDQAGGSLRLSCAATGSTFYWNAMGWYRQAPWKERELVAAISSGGSTYYADSVKGRFTISRDNAKNTVYVQMNSLKPEDTAVYYCAAEWYPYPWGYGYWGQGTQVTVSS | low polyreactivity
QVQIVESGGGLFQAGGSIRLSCSASGFTFAFYSMGWYRQAPGKERQLVAAISWSGGSTYYADSVKWRFTISRDNAKNTVYLQMNSLKPEDNAVYYCNTDRGPIGDHYDYWGQGTQVTVSS | high polyreactivity
QVQIVESGGGLFQAGGSRRLSCAASGVMFSYYAMGWYRQAPGKDRELVAAISRRVGSTYYADSVKGRFTISRDNAKNTVYLQMNSLITQVTAVYYWNAYLYSRYEFDYWVQGTQVTVSS | high polyreactivity
QVQIVESGGGLLQAGGSLRLSCAASGSTFERYAMGWYRQAPWKERELVAAIDSSGGTTYYADSVKGRFTISRDNAKNTDYLQMNSLKPEDTAVYYCAADPGYYSVAYDYWGQGTQVTVSA | low polyreactivity
QVQIVESGGGLVHAGGSLRLSCAASGRIFPDYAMGWYRQAPGKERELVATISYSGGNTNYADSVKGRFTISRDNAKNTVYLQMNSLKPEDTAVYYCNTDWYLPRYVLLGYFSGTEDYWGQGTQVTVSS | low polyreactivity
QVQIVESGGGLVQAAGSLRLTFAASGIIFYIYPMGWYRPAPGKERELVASISFSGTSTYYADSVKGRFTISRDNAKNTVYIQMHSLKPEDTAVYYCAAGARWRRALAVKPYQKYGYWGQGTQVTVSS | low polyreactivity
QVQIVESGGGLVQAGCSLRLSCAASGSTFLSNAMGLYRQAPGKERELVATNSFSRATYADSVKGRFTISRDNAKNTVYLQMNSLKPVDTAVYYCNRATINFSGKGDTAYDYWGQGTQVTVSS | low polyreactivity
QVQIVESGGGLVQAGGSHRLSCAATGLTFKYYAMGWYIQAPGKERELVAAISRSGGSTYYADSVKGRFTISRDNAKNTVYLQKNSLKPEDTAVYYCNARAGRYYSVYYPGDYWGQGTQVTVSS | high polyreactivity
QVQIVESGGGLVQAGGSIRLSCAASGTTFNLYAMGWYRQAPGKERQLVAVISWSGGSTYYADSVKGRFTISRDNAKNTVYLQMNSLKPEDTAVYYCAAEYYQWLYPYNEYDYWGQGTQVTVSS | high polyreactivity
QVQIVESGGGLVQAGGSLRISCAASGRTIHLYDMGWYRQAPGKERELVAAITWSSGRTYYADSVKGRVTISRDNAKNTVYVQMNILKPEDTEVYYCAADVWGGLLPGYDYWGQGTQVTVSS | high polyreactivity
QVQIVESGGGLVQAGGSLRISCAASGYIFLPYAMGWYRQAPGKERELVADITSVGRTYYADSVKGRFTISRDNEKNTVYLQMNSLKPEDTAVYYCAKRHSLGYGRSRYSSGYDYWGQGTQVTVSS | high polyreactivity
QVQIVESGGGLVQAGGSLRLSCAASGFIFPANAMGWYRQAPGKEREFVAVISYSGGRTYYADSVKGRFTISRDNAKNTVYLQMNSLKPEDTSVYYCNVVRVATWGYDYWGQGSQVTVSS | low polyreactivity
QVQIVESGGGLVQAGGSLRLSCAASGFIFQAYAMGWYRQAPGKERELVAAISSTSGRTYYADSVKGRFTISRDNAKNTVYLQMNSLKPEDTAVYYCARAVSSRNSGEYHYWGQGTQVTVSS | high polyreactivity
